Laboratory results from patent US20070010428A1, “Inhibitors of signal transduction and activator of transcription 3” (priority 2004, published 2007).
[ ]: non-standard residue; d: D form. pY = N[C@@H](Cc1ccc(OP(=O)(O)O)cc1)C(=O)O

B1: Ac-pTyr-Leu-Lys-Thr-Lys-Phe-NH2 (peptide)
chain: Ac-[pY]LKTKF-NH2
SMILES: CC(=O)N[C@@H](Cc1ccc(OP(=O)(O)O)cc1)C(=O)N[C@@H](CC(C)C)C(=O)N[C@@H](CCCCN)C(=O)N[C@H](C(=O)N[C@@H](CCCCN)C(=O)N[C@@H](Cc1ccccc1)C(N)=O)[C@@H](C)O

How the values were obtained:
[1] = molecular target: Stat3 (as in the EMSA of Table 1), P40763; experiment: EMSA: inhibition of Stat3 dimerization and DNA binding, average of two determinations
Sequence of Stat3 (as in the EMSA of Table 1), P40763 (P40763 whole entry): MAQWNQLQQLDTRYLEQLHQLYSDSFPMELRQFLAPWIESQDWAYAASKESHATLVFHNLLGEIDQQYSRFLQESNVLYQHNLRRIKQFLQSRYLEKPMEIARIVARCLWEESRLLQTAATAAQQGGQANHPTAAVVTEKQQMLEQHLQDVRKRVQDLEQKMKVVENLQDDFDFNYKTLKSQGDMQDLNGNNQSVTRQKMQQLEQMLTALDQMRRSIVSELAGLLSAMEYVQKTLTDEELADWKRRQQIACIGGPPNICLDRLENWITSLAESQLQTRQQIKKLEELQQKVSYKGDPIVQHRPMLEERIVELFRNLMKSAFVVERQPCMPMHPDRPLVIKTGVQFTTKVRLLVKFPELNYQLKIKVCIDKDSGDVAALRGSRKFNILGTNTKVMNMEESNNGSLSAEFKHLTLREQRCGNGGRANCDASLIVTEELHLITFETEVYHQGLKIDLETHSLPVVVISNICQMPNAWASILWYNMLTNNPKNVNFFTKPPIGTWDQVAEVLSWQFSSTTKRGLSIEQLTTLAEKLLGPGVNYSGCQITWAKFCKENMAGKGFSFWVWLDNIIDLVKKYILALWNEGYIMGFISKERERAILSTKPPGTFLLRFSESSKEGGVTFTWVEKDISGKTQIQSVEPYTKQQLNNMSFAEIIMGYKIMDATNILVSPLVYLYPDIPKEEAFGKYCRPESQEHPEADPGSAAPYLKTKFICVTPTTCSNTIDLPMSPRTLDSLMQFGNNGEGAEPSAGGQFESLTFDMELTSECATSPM

[2] = molecular target: full length Stat3, P40763; experiment: fluorescence polarization, full length Stat3 titrated into the FP probe
Sequence of full length Stat3, P40763 (P40763 whole entry): as above

| Binder | IC50 [1] | Kd [2] |
| --- | --- | --- |
| YHNQPL (modifications not checked) [Ac-Y(p)HNQPL-NH2 (EGFR Tyr 1086 hexapeptide)] | 150 µM | – |
| YINQSV (modifications not checked) [Ac-Y(p)INQSV-NH2 (EGFR Tyr 1068 hexapeptide)] | 30 µM | – |
| {fluorescein‑5‑carboxyl}-A[pY]LPQTV-NH2 [fluorescein-5-carboxyl-Ala-pTyr-Leu-Pro-Gln-Thr-Val-NH2] | – | 0.05 µM |
| B1 | 20 µM | – |
